Patent EP4471049A1 (Zealand Pharma A/S, priority 2023, dated 2024)
*1 amine or outer side, *2 acyl side, *3 side chain or, on linkers, in order; H or OH if unused. Where a SMILES comes first, the peptide text is derived from it. Bridges are numbered along the chain shown (N, C = ends). [ ]: non-standard residue; d: D form. 4‑Aminomethyl‑phenylacetyl = 4-aminomethyl-phenylacetyl unit, its amine closes the lactam, O=C(Cc1ccc(CN[*:1])cc1)[*:2]; 2Nal = N[C@@H](Cc1ccc2ccccc2c1)C(=O)O; AEF = NCCOc1ccc(C[C@H](N)C(=O)O)cc1; X1 = O=C(Cc1ccc(CN[*:1])cc1)[*:2]; 3Pal = N[C@@H](Cc1cccnc1)C(=O)O; αMeL = CC(C)C[C@](C)(N)C(=O)O; NMeS = CN[C@@H](CO)C(=O)O; Orn = NCCC[C@H](N)C(=O)O; Q(Me) = not defined here; Dab = NCC[C@H](N)C(=O)O; βAla = NCCC(=O)O

T1: human IL-23R (Homo sapiens, UniProt Q5VWK5)
T1 sequence (Q5VWK5 22-629): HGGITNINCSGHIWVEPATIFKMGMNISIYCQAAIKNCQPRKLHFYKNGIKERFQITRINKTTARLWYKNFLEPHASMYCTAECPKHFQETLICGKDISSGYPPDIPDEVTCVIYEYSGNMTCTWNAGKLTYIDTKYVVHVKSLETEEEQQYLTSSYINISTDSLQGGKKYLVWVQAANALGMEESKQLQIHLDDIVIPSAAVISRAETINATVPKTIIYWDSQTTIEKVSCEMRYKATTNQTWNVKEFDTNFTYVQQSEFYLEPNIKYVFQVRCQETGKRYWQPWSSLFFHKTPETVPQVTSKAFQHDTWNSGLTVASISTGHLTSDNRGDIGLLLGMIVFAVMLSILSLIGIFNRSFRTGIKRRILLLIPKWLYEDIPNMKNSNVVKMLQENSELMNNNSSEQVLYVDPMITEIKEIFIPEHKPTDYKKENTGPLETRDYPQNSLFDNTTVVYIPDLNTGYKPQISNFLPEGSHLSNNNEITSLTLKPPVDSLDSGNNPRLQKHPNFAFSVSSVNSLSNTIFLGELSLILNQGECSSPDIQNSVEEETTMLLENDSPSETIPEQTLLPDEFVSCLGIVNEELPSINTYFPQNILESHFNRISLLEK

T2: Nluc-IL23R fusion protein (human, UniProt Q5VWK5 22-629)
T2 construct: range 22-629; expressed with a secretion signal in HEK293 cells; used as crude membrane preparation; also called hIL-23R; human IL-23R; not shown: Nanoluc protein from the expression plasmid N1371 (Promega), N-terminal of IL-23R
T2 sequence (looked up): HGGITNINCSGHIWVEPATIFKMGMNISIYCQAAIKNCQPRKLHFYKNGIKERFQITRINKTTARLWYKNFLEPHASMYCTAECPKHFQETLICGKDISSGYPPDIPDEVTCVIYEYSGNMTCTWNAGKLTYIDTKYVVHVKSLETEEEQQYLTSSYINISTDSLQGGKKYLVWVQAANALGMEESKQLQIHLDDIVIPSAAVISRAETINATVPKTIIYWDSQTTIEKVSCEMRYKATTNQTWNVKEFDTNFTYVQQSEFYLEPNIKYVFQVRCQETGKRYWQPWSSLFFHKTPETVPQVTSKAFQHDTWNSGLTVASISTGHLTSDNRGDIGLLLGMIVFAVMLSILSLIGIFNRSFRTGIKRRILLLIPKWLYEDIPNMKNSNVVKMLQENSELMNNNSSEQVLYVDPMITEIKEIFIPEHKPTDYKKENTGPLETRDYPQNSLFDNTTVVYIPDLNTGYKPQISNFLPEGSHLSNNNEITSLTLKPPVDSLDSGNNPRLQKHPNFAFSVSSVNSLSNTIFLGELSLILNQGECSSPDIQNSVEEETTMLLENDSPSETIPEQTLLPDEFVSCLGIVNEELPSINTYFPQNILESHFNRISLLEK

B1: Compound 28 (peptide)
peptide: [4‑Aminomethyl‑phenylacetyl]SEW[Orn][Dab][AEF][2Nal][αMeL]E[Dab][3Pal]-NHMe
modifications: lactam N-10, 3-6
SMILES: CNC(=O)[C@H](Cc1cccnc1)NC(=O)[C@H](CCN)NC(=O)[C@@H]1CCC(=O)NCc2ccc(cc2)CC(=O)N[C@@H](CO)C(=O)N[C@H]2CCC(=O)NCC[C@H](NC(=O)[C@H](CCCN)NC(=O)[C@H](Cc3c[nH]c4ccccc34)NC2=O)C(=O)N[C@@H](Cc2ccc(OCCN)cc2)C(=O)N[C@@H](Cc2ccc3ccccc3c2)C(=O)N[C@@](C)(CC(C)C)C(=O)N1
B2: Compound 34 (peptide)
peptide: [4‑Aminomethyl‑phenylacetyl]SEWQ[Dab][AEF][2Nal][αMeL]EH[3Pal]-NHMe
modifications: lactam N-10, 3-6
SMILES: CNC(=O)[C@H](Cc1cccnc1)NC(=O)[C@H](Cc1c[nH]cn1)NC(=O)[C@@H]1CCC(=O)NCc2ccc(cc2)CC(=O)N[C@@H](CO)C(=O)N[C@H]2CCC(=O)NCC[C@H](NC(=O)[C@H](CCC(N)=O)NC(=O)[C@H](Cc3c[nH]c4ccccc34)NC2=O)C(=O)N[C@@H](Cc2ccc(OCCN)cc2)C(=O)N[C@@H](Cc2ccc3ccccc3c2)C(=O)N[C@@](C)(CC(C)C)C(=O)N1
B3: Ref 141 (peptide)
peptide: [4‑Aminomethyl‑phenylacetyl][NMeS]CWQC[AEF][2Nal][αMeL]E[Dab]-NH2
modifications: lactam N-10; bridge 3-6; not fully specified (bridges); printed as [4-Aminomethyl-phenylacetyl](1c)*[N-Me-Ser]C(2a)WQC(2a)[Y(2-aminoethoxy)][2-Nal][2-Me-Leu]E(1c)[Dab]-[NH2]

Biological target: T1, human IL-23R
Assay: biochemical
Conditions: not given
Summary of the method: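 BRET displacement of a TAMRA-labelled reference compound from N-terminal Nanoluc-IL-23R fusion protein in membranes from stably transfected HEK293 cells. Incubation 2 h at room temperature, then Nanoluc substrate was added and the TAMRA/Nanoluc ratio read. IC50 and maximal displacement came from 4-parameter logistic fits.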
For `CNC(=O)[C@H](Cc1cccnc1)NC(=O)[C@H](CO)NC(=O)[C@@H]1CCC(=O)NCc2ccc(cc2)CC(=O)N[C@@H](CO)C(=O)N[C@H]2CCC(=O)NCC[C@H](NC(=O)[C@H](CCC(N)=O)NC(=O)[C@H](Cc3c[nH]c4ccccc34)NC2=O)C(=O)N[C@@H](Cc2ccc(OCCN)cc2)C(=O)N[C@@H](Cc2ccc3ccccc3c2)C(=O)N[C@@](C)(CC(C)C)C(=O)N1` [Compound 31, [4-Aminomethyl-phenylacetyl](1c)*SE(2c)WQ[Dab](2c)[Y(2-aminoethoxy)][2-Nal][2-Me-Leu]E(1c)S[3-(3-Pyridyl)-Ala]-[NHMe]] ([X1]SEWQ[Dab][AEF][2Nal][αMeL]ES[3Pal]-NHMe; lactam 3-6, N-10), the “% displacement (hIL-23R binding)” value was 97% and the IC50 was 0.012 nM.
For `CNC(=O)[C@H](Cc1cccnc1)NC(=O)[C@H](CCN)NC(=O)[C@@H]1CCC(=O)NCc2ccc(cc2)CC(=O)N[C@@H](C)C(=O)N[C@H]2CCC(=O)NCC[C@H](NC(=O)[C@H](CCC(N)=O)NC(=O)[C@H](Cc3c[nH]c4ccccc34)NC2=O)C(=O)N[C@@H](CCc2ccccc2)C(=O)N[C@@H](Cc2ccc3ccccc3c2)C(=O)NC(C)(C)C(=O)N1` [Compound 41, [4-Aminomethyl-phenylacetyl](1c)*AE(2c)WQ[Dab](2c)[hPhe][2-Nal][Aib]E(1c)[Dab][3-(3-Pyridyl)-Ala]-[NHMe]], the “% displacement (hIL-23R binding)” value was 104% and the IC50 was 0.28 nM.

Tested on: not listed separately
Assay: Peptide stability in simulated intestinal fluid (SIF)
Assay type: in vitro ADME
Conditions: pig, simulated intestinal fluid (SIF) with porcine pancreatin; 1 h, 37 °C, pH 6.8, porcine pancreatin 10 g/L, 10 µM
Experimental: SGF was prepared by dissolving sodium chloride (0.2 g) in 50 mL of water. A volume of 0.7 mL of 10 M HCl was added to adjust the pH of the solution to 1.2 and the volume made up to 100 mL with water. […] SIF was prepared by dissolving monobasic potassium phosphate (0.68 g) in 50 mL of water and adjusting the pH to 6.8 with 1 M NaOH. The volume was subsequently made up to 100 mL with water. 200 mg porcine pancreatin (P1625, Sigma Aldrich) was gently dissolved into 20 mL preheated (37 °C) solution (10 g/L) immediately prior to the incubation.
The incubation was performed at 37 °C with gentle shaking. […] After the last timepoint, the sampling plate was mixed for 10 min on a shaking table and centrifuged 10 min at 2200 g. 70 µL resulting supernatant was diluted with 150 µL water, mixed and centrifugated before analysis by liquid chromatography high resolution mass spectrometry. […] Percent remaining at each timepoint was calculated relative to timepoint zero based on absolute peak areas.
Compounds with a SIF stability (after 4 h) above 70% are considered highly SIF stable.
Molecule `CNC(=O)[C@H](Cc1cccnc1)NC(=O)[C@H](CCN)NC(=O)[C@@H]1CCC(=O)NCc2ccc(cc2)CC(=O)N[C@@H](C)C(=O)N[C@H]2CCC(=O)NCC[C@H](NC(=O)[C@H](CCC(N)=O)NC(=O)[C@H](Cc3c[nH]c4ccccc34)NC2=O)C(=O)N[C@@H](CCc2ccccc2)C(=O)N[C@@H](Cc2ccc3ccccc3c2)C(=O)NC(C)(C)C(=O)N1` [Compound 41, [4-Aminomethyl-phenylacetyl](1c)*AE(2c)WQ[Dab](2c)[hPhe][2-Nal][Aib]E(1c)[Dab][3-(3-Pyridyl)-Ala]-[NHMe]] has a remaining at 1 h, 10 µM of 100%.

Same assay, conditions: pig, simulated intestinal fluid (SIF) with porcine pancreatin; 4 h, 37 °C, pH 6.8, porcine pancreatin 10 g/L, 10 µM; read-out: SIF (% remaining 4 h)
For `CNC(=O)[C@H](Cc1cccnc1)NC(=O)[C@H](CO)NC(=O)[C@@H]1CCC(=O)NCc2ccc(cc2)CC(=O)N[C@@H](CO)C(=O)N[C@H]2CCC(=O)NCC[C@H](NC(=O)[C@H](CCC(N)=O)NC(=O)[C@H](Cc3c[nH]c4ccccc34)NC2=O)C(=O)N[C@@H](Cc2ccc(OCCN)cc2)C(=O)N[C@@H](Cc2ccc3ccccc3c2)C(=O)N[C@@](C)(CC(C)C)C(=O)N1` [Compound 31, [4-Aminomethyl-phenylacetyl](1c)*SE(2c)WQ[Dab](2c)[Y(2-aminoethoxy)][2-Nal][2-Me-Leu]E(1c)S[3-(3-Pyridyl)-Ala]-[NHMe]] ([X1]SEWQ[Dab][AEF][2Nal][αMeL]ES[3Pal]-NHMe; lactam 3-6, N-10), the remaining at 4 h, 10 µM was 41%.
In the case of `CNC(=O)[C@H](Cc1cccnc1)NC(=O)[C@H](CCN)NC(=O)[C@@H]1CCC(=O)NCc2ccc(cc2)CC(=O)N[C@@H](C)C(=O)N[C@H]2CCC(=O)NCC[C@H](NC(=O)[C@H](CCC(N)=O)NC(=O)[C@H](Cc3c[nH]c4ccccc34)NC2=O)C(=O)N[C@@H](CCc2ccccc2)C(=O)N[C@@H](Cc2ccc3ccccc3c2)C(=O)NC(C)(C)C(=O)N1` [Compound 41, [4-Aminomethyl-phenylacetyl](1c)*AE(2c)WQ[Dab](2c)[hPhe][2-Nal][Aib]E(1c)[Dab][3-(3-Pyridyl)-Ala]-[NHMe]], the remaining at 4 h, 10 µM is reported as 95%.

Biological target: T2, Nluc-IL23R fusion protein
Assay: BRET competition vs TAMRA-labelled peptide, Nluc-IL23R membranes
Conditions: not given
B1 gave a % displacement (hIL-23R binding) of 97% and an IC50 of 0.011 nM.
B2 showed a % displacement (hIL-23R binding) of 90%.
For B3, the % displacement (hIL-23R binding) was 102%.
[βAla][3Pal]SCWQC[AEF][2Nal][αMeL]E[dR]-NH2 (lactam N-11; linker 4-7 via 1,3‑dithio‑propan‑2‑one) [Compound 1] gave a % displacement (hIL-23R binding) of 105%.
Work on [3Pal][βAla]SCWQC[AEF][2Nal][αMeL]E[dR]-NH2 (lactam N-11; linker 4-7 via 1,3‑dithio‑propan‑2‑one) [Compound 2] yielded a % displacement (hIL-23R binding) of 103%.
Molecule [4‑Aminomethyl‑phenylacetyl]SEW[Q(Me)][Dab][AEF][2Nal][αMeL]E[Dab][3Pal]-NHMe (lactam N-10, 3-6; reading uncertain) [Compound 29] has a % displacement (hIL-23R binding) of 96% and an IC50 of 0.011 nM.
